Tests used:
[1] = target: T1, ErbB2 (pY1248, pY877) in SKBR3 cells (Homo sapiens, UniProt P04626); assay: ErbB2 phosphorylation, Western blot with phospho-specific ErbB2 antibodies and densitometry; assay type: cell-based
T1 construct: ErbB2 overexpressing SKBR3 cells were treated with the EC-1 free peptide; endogenous in cells; host or cells: SKBR3
Method: FIG. 6A is a Western blot analysis of SKBR3 cell lysates made at various times following 15 minute treatment with 25 μM EC-1 peptide. Blots were probed with pY1248 phospho ErbB2 antibody, pY877 phospho ErbB2 antibody and total ErbB2 antibody.
ErbB2 overexpressing SKBR3 cells were treated with the EC-1 free peptide to determine its effect on ErbB2 activation. When ErbB2 is activated it becomes phosphorylated on specific tyrosine residues (i.e., pY1248 and pY877). This is turn triggers downstream signal transduction events, culminating in increased cellular proliferation. Viable SKBR3 cells were treated with 25 μM EC-1 peptide for 15 minutes. At 0.5, 2, 4, 8, 22 and 48 hours thereafter, cell lysates were prepared and run on a Western blot using phospho-specific ErbB2 antibodies. […] (See FIG. 6B.) The peptide had no effect on total ErbB2 expression.

[2] = target: T2, native, intact ErbB2 extracted from the membranes of human breast cancer cells (Homo sapiens, UniProt P04626); assay: ELISA of peptide phage on solubilized membrane lysates captured with anti-ErbB2 antibody; assay type: binding
T2 construct: native, intact ErbB2 extracted from the membranes of human breast cancer cells; endogenous in cells; host or cells: BT474 and SKBR3 breast cancer cells (MCF7 as low-expression control)
Method: The above identified peptide phage specifically bind to native, intact ErbB2 extracted from the membranes of human breast cancer cells that overexpress ErbB2. Plates were coated with 1 μg of an antibody that binds to the intracellular domain of ErbB2, followed by 100 μl of solubilized membrane preparations from two different breast cancer cell lines that overexpress ErbB2 (BT474 and SKBR3), and probed with CB1 peptide-phage, control library phage, and 9G6 anti-ErbB2. MCF7 cells serve as a (relative) negative target control, as MCF7 breast cancer cells express only a low level of ErbB2.
Peptide phage derived from the EC-1 biases library similarly bind specifically to membrane lysates from ErbB2 expressing SKBR3 cells but not to lysates from minimally expressing MCF7 cells. (See FIG. 2B.)

time for which phosphorylation of ErbB2 is inhibited after treatment ([1]; 25 μM EC-1): at least 8 hours | effect on total ErbB2 expression ([1]; 25 μM EC-1 peptide): no effect | inhibition of the phosphorylation of residues pY1248 and pY877 of ErbB2 ([1]; 25 μM EC-1 peptide for 15 minutes, after 0.5 hrs): 40% | binding to membrane lysates from ErbB2 overexpressing cells by ELISA ([2]; BT474 and/or SKBR3 lysates): binding to SKBR3 | binding to membrane lysates from MCF7 cells by ELISA ([2]; MCF7 cells express only a low level of ErbB2): not to MCF7
Substance: WTGW C LNPEESTWGF C TGSF (WTGWCLNPEESTWGFCTGSF) [EC-1]
